Experimental data reported in publication PMC12775393.

What was measured:
[1] = target: E. coli MRE600 tight-couple 70S ribosome (natural), translating the V50 hairpin mRNA (E. coli (endogenous in MRE600)) (UniProt P0A7K2); assay: optical tweezers with single-molecule fluorescence detection (fleezers); hairpin unwinding assay as a1, with a mixture of 1 mM GTP and 0.5 mM GDPNP; slow population of a bi-exponential fit
[2] = target: E. coli MRE600 tight-couple 70S ribosome (natural), translating the V50 hairpin mRNA (E. coli (endogenous in MRE600)) (UniProt P0A7K2); assay: optical tweezers with single-molecule fluorescence detection (fleezers); hairpin unwinding assay as a1, with a mixture of 1 mM GTP and 0.5 mM GTPγS; slow population of a bi-exponential fit
[3] = target: E. coli MRE600 tight-couple 70S ribosome (natural), translating the V50 hairpin mRNA (E. coli (endogenous in MRE600)) (UniProt P0A7K2); assay: optical tweezers with single-molecule fluorescence detection (fleezers); hairpin unwinding assay as a1, GDPNP:GTP ratio 1:9 at constant total nucleotide concentration; slow population of a bi-exponential fit
[4] = target: E. coli MRE600 tight-couple 70S ribosome (natural), translating the V50 hairpin mRNA (E. coli (endogenous in MRE600)) (UniProt P0A7K2); assay: optical tweezers with single-molecule fluorescence detection (fleezers); hairpin unwinding assay as a1, GDPNP:GTP ratio 3:1 at constant total nucleotide concentration; slow population of a bi-exponential fit
[5] = target: S16-biotinylated E. coli 70S ribosome, translating the hairpin-less mRNA (E. coli) (UniProt P0A7K2); assay: optical tweezers with single-molecule fluorescence detection (fleezers); assisting force assay; ribosome tethered by biotinylated S16 to one bead and the 5' end of a hairpin-less mRNA to the other, 9-12 pN; Cy3-labeled EF-G in solution, GTP (1 mM stated for the H92Q and H92A mutants), 1x TLC buffer
[6] = target: E. coli MRE600 tight-couple 70S ribosome (natural), translating the V50 hairpin mRNA (E. coli (endogenous in MRE600)) (UniProt P0A7K2); assay: optical tweezers with single-molecule fluorescence detection (fleezers); hairpin unwinding assay; ribosome stalled on the V50 mRNA hairpin tethered between two beads at ~14 pN (13.5-14.5 pN); 10 nM Cy3-labeled EF-G in the translation mix, 1 mM GTP, 1x TLC buffer (40 mM HEPES pH 7.5, 60 mM NH4Cl, 10 mM Mg(OAc)2, 6 mM βME)

τ release, slow (GDPNP) population [1] | τ release, slow (GTPγS) population [2] | τ release, slow (GDPNP) population [3] | τ release, slow (GDPNP) population [4] | mean total dwell time of EF-G on the ribosome (τpre + τ post) [5] | mean dwell time of unproductive binding events (τ unproductive) [6] | mean total dwell time of EF-G on the ribosome (τ unwinding + τ release) [6] | τ release (time between hairpin unwinding and EF-G release) [6] | τ post (time between the mRNA step and EF-G unbinding) [5] | Substance
8.5 s | 1.8 s | 2.5 s | 17 s | 308 ms | 300 ms | 445 ms | 0.38 s | – | Cy3-labeled EF-G, single-cysteine variant EF-G(S73C) (from UniProt P0A6M8 1-704) (enzyme)
– | – | – | – | – | – | – | 20 s | > 20 s | Cy3-labeled H92A EF-G (made from EF-G(S73C)) (from UniProt P0A6M8 1-704) (enzyme)
– | – | – | – | – | – | – | 2 s | – | Cy3-labeled H92Q EF-G (made from EF-G(S73C)) (from UniProt P0A6M8 1-704) (enzyme)
